Target: β-amyloid1-42 (UniProt P05067)
Assay: cell-based or functional assay

With cyclic peptide (Ac)ECCK-amide the ACh rel % Inh @ 100 µM was 87%.
